What all share (details): protein: recombinant; tags: 6xHis removed by drICE; chain copies: 2
For one data set, the target named is T1, AimR T78D (Bacillus phage SPbeta, UniProt O64094 1-386, T78D).
T1 sequence: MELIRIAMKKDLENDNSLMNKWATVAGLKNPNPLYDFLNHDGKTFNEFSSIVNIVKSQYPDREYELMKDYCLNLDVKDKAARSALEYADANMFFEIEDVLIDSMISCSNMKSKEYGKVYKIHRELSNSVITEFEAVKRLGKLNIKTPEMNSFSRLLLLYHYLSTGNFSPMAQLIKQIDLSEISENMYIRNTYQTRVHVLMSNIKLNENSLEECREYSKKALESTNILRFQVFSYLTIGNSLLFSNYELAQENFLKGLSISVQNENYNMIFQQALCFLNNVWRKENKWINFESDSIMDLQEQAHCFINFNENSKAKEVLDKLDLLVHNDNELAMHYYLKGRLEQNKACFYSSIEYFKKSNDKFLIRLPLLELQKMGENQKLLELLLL
The experiment in a line: EMSA; EMSA: 25 mM Tris-HCl pH 8.0, 150 mM NaCl, 5 mM MgCl2, 5 mM DTT, 0.1 mg/ml BSA, 10% glycerol, 50 ug/ml salmon sperm DNA, 4 C, 15 min; smFRET: 20 mM phosphate pH. On the technique in general: Mobility shift assays separate free from complexed probe on a gel.

For the next data set, the target named is T2, AimR K120D (Bacillus phage SPbeta, UniProt O64094 1-386, K120D).
T2 sequence: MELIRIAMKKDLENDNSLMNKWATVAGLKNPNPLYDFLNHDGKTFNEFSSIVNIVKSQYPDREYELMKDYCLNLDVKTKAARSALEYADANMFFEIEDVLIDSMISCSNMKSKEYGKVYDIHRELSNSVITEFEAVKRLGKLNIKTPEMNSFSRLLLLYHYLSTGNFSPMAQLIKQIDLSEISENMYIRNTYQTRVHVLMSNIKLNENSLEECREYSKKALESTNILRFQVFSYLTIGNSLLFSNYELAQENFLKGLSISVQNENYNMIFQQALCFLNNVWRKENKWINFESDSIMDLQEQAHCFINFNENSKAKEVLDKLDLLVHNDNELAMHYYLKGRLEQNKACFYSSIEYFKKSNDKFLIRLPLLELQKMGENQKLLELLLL
Described as above.

A further data set has as its target T3, AimR T44D (Bacillus phage SPbeta, UniProt O64094 1-386, T44D).
T3 sequence: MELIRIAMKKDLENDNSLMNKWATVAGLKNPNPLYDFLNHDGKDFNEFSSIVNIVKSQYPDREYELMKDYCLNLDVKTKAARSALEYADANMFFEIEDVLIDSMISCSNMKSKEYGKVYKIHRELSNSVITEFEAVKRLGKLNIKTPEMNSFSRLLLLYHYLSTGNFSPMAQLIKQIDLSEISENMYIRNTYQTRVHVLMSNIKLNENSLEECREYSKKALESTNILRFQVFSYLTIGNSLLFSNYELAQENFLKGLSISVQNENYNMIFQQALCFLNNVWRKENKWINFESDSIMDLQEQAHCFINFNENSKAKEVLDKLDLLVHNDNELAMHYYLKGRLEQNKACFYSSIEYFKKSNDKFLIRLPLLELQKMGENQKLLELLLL
The experiment in a line: EMSA; 5 mM Mg2+; EMSA: 25 mM Tris-HCl pH 8.0, 150 mM NaCl, 5 mM MgCl2, 5 mM DTT, 0.1 mg/ml BSA, 10% glycerol, 50 ug/ml salmon sperm DNA, 4 C, 15 min; smFRET: 20 mM phosphate pH.

B1: 31 bp aimX-upstream palindromic DNA (dsDNA)
DNA 1: ACTTAAATATTAGGTTTTAATAACATCTAGT
DNA 2: ACTAGATGTTATTAAAACCTAATATTTAAGT
On to B1, for which the binding result with AimR T78D and with AimR K120D was “binds” each time. In the data set with AimR T44D, the binding signal is 11 fold lower affinity than WT AimR.

The record behind these values is paper PMC6536502, “Structural insights into DNA recognition by AimR of the arbitrium communication system in the SPbeta phage” (Cell Discovery, 2019).
